Consider 2 substances from paper PMC6876572.

Broadly, the koff is a measure of how fast the partners let go of each other. As usually defined, the kon is the rate constant with which the complex forms.

Assay [1] addresses Cof1-decorated (Cofilin-saturated) actin filament (rabbit | S. cerevisiae) (UniProt P68135).
For assay [2] the target is unchanged. Kind of assay: single-molecule two-colour TIRF imaging; actin filaments (10% Alexa-488, 0.5% biotinylated) anchored along their lengths on streptavidin-coated coverslips, exposed to a mixture of Cy5-Srv2ΔCARP (8.3 or 83 nM hexamers) and 1 µM yeast Cof1 in TIRF buffer (10 mM imidazole pH 7.4, 50 mM KCl, 1 mM MgCl2, 1 mM EGTA, 0.2 mM ATP, 10 mM DTT); dwell and waiting times at the pointed end; kon corrected for unlabeled molecules.

For the substance “N-Srv2 (N-terminal half of S. cerevisiae Srv2/CAP) (domain or fragment)”, the KM of the rate of pointed-end depolymerization against N-Srv2 concentration at 1 µM Cof1 (mf-TIRF, fit to the Michaelis-Menten equation) in assay [1] worked out at 0.05 µM.
Consider “Cy5-maleimide-labeled Srv2ΔCARP (S. cerevisiae Srv2/CAP lacking the CARP domain) (from UniProt P17555 1-526) (domain or fragment)”, for which, in assay [2], the average dwell time at the pointed end came to 2.2 s; the fractional occupancy of filament ends at 8.3 nM (calculated from kon and koff) was 16%; the fractional occupancy of filament ends at 83 nM (calculated from kon and koff) is 66%; the koff came to 0.45 s⁻¹. In addition, in assay [2], the on-rate constant (kon) was 1.1e+07 M⁻¹ s⁻¹.
